The sequences below were run on Escherichia coli TOP10 (assay: shrunken log2 fold change of peptide-encoding DNA abundance (4.5 h post-induction vs induction); higher = less antimicrobial activity (less host growth inhibition)). Settings: time post-induction: 4.5 h; library: site-saturation at positions 5, 18, 19, 20.
For RRIRKRPPRLPRPRPRPQGYPRP, the “shrunken log2 fold change” value was -0.0839. RRIRIRPPRLPRPRPRPSWTPRP was tested, and the “shrunken log2 fold change” value was -0.237. For RRIRSRPPRLPRPRPRPGGQPRP, the “shrunken log2 fold change” value was 0.279. For RRIRQRPPRLPRPRPRPQQKPRP, the “shrunken log2 fold change” value was -0.023. In the case of RRIRPRPPRLPRPRPRPAANPRP, the “shrunken log2 fold change” value is reported as 0.17. RRIRSRPPRLPRPRPRPGWWPRP was tested, and the “shrunken log2 fold change” value was 4.72. In the case of RRIRNRPPRLPRPRPRPTISPRP, the “shrunken log2 fold change” value is reported as -0.969. With RRIRPRPPRLPRPRPRPRWTPRP the “shrunken log2 fold change” value was 0.399. For RRIRHRPPRLPRPRPRPHGQPRP, the “shrunken log2 fold change” value was 0.0111. In the case of RRIRKRPPRLPRPRPRPSDSPRP, the “shrunken log2 fold change” value is reported as -0.132. In the case of RRIRCRPPRLPRPRPRPQCQPRP, the “shrunken log2 fold change” value is reported as 0.0557. RRIRGRPPRLPRPRPRPFYMPRP was tested, and the “shrunken log2 fold change” value was -0.0339. In the case of RRIRSRPPRLPRPRPRPTVDPRP, the “shrunken log2 fold change” value is reported as 0.16. In the case of RRIRIRPPRLPRPRPRPQLYPRP, the “shrunken log2 fold change” value is reported as -0.303. For RRIRERPPRLPRPRPRPCRPPRP, the “shrunken log2 fold change” value was -0.00126. For RRIRTRPPRLPRPRPRPPFRPRP, the “shrunken log2 fold change” value was 0.693. RRIRQRPPRLPRPRPRPRHHPRP was tested, and the “shrunken log2 fold change” value was 0.0815. In the case of RRIRTRPPRLPRPRPRPDCFPRP, the “shrunken log2 fold change” value is reported as -0.138. For RRIRTRPPRLPRPRPRPKISPRP, the “shrunken log2 fold change” value was -0.932. For RRIRDRPPRLPRPRPRPRAIPRP, the “shrunken log2 fold change” value was 0.108. For RRIRNRPPRLPRPRPRPFFHPRP, the “shrunken log2 fold change” value was -0.446. For RRIRARPPRLPRPRPRPKQIPRP, the “shrunken log2 fold change” value was 0.146. In the case of RRIRQRPPRLPRPRPRPLPDPRP, the “shrunken log2 fold change” value is reported as 0.0466. With RRIRDRPPRLPRPRPRPSMAPRP the “shrunken log2 fold change” value was 0.202. RRIRYRPPRLPRPRPRPQWAPRP was tested, and the “shrunken log2 fold change” value was -0.00681. For RRIRERPPRLPRPRPRPGNEPRP, the “shrunken log2 fold change” value was -0.0966. With RRIRARPPRLPRPRPRPGLAPRP the “shrunken log2 fold change” value was 1. RRIRIRPPRLPRPRPRPVFLPRP was tested, and the “shrunken log2 fold change” value was -0.51. RRIRMRPPRLPRPRPRPDRDPRP was tested, and the “shrunken log2 fold change” value was 0.353. RRIRQRPPRLPRPRPRPMRRPRP was tested, and the “shrunken log2 fold change” value was 0.225. For RRIRCRPPRLPRPRPRPNWAPRP, the “shrunken log2 fold change” value was -0.336. For RRIRKRPPRLPRPRPRPFTGPRP, the “shrunken log2 fold change” value was 0.0735. RRIRNRPPRLPRPRPRPEKRPRP was tested, and the “shrunken log2 fold change” value was -0.0252. In the case of RRIRKRPPRLPRPRPRPVKLPRP, the “shrunken log2 fold change” value is reported as -0.0408. With RRIRTRPPRLPRPRPRPAMNPRP the “shrunken log2 fold change” value was -0.405. RRIRERPPRLPRPRPRPQITPRP was tested, and the “shrunken log2 fold change” value was -0.778. RRIRIRPPRLPRPRPRPDATPRP was tested, and the “shrunken log2 fold change” value was 0.0122. RRIRKRPPRLPRPRPRPGPAPRP was tested, and the “shrunken log2 fold change” value was 1.05. In the case of RRIRPRPPRLPRPRPRPYDTPRP, the “shrunken log2 fold change” value is reported as 0.0749. For RRIRIRPPRLPRPRPRPSGFPRP, the “shrunken log2 fold change” value was -0.175. For RRIRGRPPRLPRPRPRPGDCPRP, the “shrunken log2 fold change” value was 0.824. With RRIRPRPPRLPRPRPRPCSCPRP the “shrunken log2 fold change” value was -0.516. With RRIRGRPPRLPRPRPRPREFPRP the “shrunken log2 fold change” value was 1.07. In the case of RRIRDRPPRLPRPRPRPASSPRP, the “shrunken log2 fold change” value is reported as 0.0229. With RRIRGRPPRLPRPRPRPPRLPRP the “shrunken log2 fold change” value was 0.702. With RRIRNRPPRLPRPRPRPFAYPRP the “shrunken log2 fold change” value was 0.0803. With RRIRHRPPRLPRPRPRPNSWPRP the “shrunken log2 fold change” value was 0.254. RRIRARPPRLPRPRPRPMTFPRP was tested, and the “shrunken log2 fold change” value was -0.191. For RRIRSRPPRLPRPRPRPMNMPRP, the “shrunken log2 fold change” value was -0.118. RRIRFRPPRLPRPRPRPYLAPRP was tested, and the “shrunken log2 fold change” value was -0.425. RRIRMRPPRLPRPRPRPDEDPRP was tested, and the “shrunken log2 fold change” value was -0.0149. In the case of RRIRGRPPRLPRPRPRPEVHPRP, the “shrunken log2 fold change” value is reported as 0.141. RRIRRRPPRLPRPRPRPMMIPRP was tested, and the “shrunken log2 fold change” value was -0.185. In the case of RRIRWRPPRLPRPRPRPQHSPRP, the “shrunken log2 fold change” value is reported as -0.186. For RRIRRRPPRLPRPRPRPGKQPRP, the “shrunken log2 fold change” value was 0.254. In the case of RRIRWRPPRLPRPRPRPGLIPRP, the “shrunken log2 fold change” value is reported as 0.336. In the case of RRIRWRPPRLPRPRPRPYNPPRP, the “shrunken log2 fold change” value is reported as -1.48. In the case of RRIRWRPPRLPRPRPRPKEGPRP, the “shrunken log2 fold change” value is reported as 0.538. RRIRSRPPRLPRPRPRPFLWPRP was tested, and the “shrunken log2 fold change” value was -0.0904. In the case of RRIRDRPPRLPRPRPRPPTSPRP, the “shrunken log2 fold change” value is reported as 0.00594. In the case of RRIRMRPPRLPRPRPRPPYHPRP, the “shrunken log2 fold change” value is reported as -0.0913. With RRIRMRPPRLPRPRPRPKTTPRP the “shrunken log2 fold change” value was 1.09. RRIRWRPPRLPRPRPRPMHWPRP was tested, and the “shrunken log2 fold change” value was 0.194. For RRIRERPPRLPRPRPRPYKAPRP, the “shrunken log2 fold change” value was -0.123. For RRIRSRPPRLPRPRPRPYGEPRP, the “shrunken log2 fold change” value was -0.256. In the case of RRIRSRPPRLPRPRPRPIWDPRP, the “shrunken log2 fold change” value is reported as 0.309. With RRIRNRPPRLPRPRPRPLKPPRP the “shrunken log2 fold change” value was 0.203. RRIRWRPPRLPRPRPRPRIEPRP was tested, and the “shrunken log2 fold change” value was 0.186. RRIRARPPRLPRPRPRPDMLPRP was tested, and the “shrunken log2 fold change” value was -0.0619. With RRIRPRPPRLPRPRPRPTMEPRP the “shrunken log2 fold change” value was 0.0735. RRIRMRPPRLPRPRPRPHVPPRP was tested, and the “shrunken log2 fold change” value was 0.107. For RRIRQRPPRLPRPRPRPSRHPRP, the “shrunken log2 fold change” value was -0.0666. RRIRSRPPRLPRPRPRPQDTPRP was tested, and the “shrunken log2 fold change” value was -0.265. With RRIRHRPPRLPRPRPRPVCYPRP the “shrunken log2 fold change” value was -0.663. With RRIRDRPPRLPRPRPRPWDTPRP the “shrunken log2 fold change” value was -0.029.
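Note: peptides expressed intracellularly from a pBAD plasmid library in pooled LB shake-flask culture, induced with 0.3% L-arabinose, DNA abundance read by NGS, three biological replicates, DESeq2 with apeglm shrinkage.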
